Molecular target: T1, cyanophycinase (CphB) (Synechocystis sp. PCC 6803 (endogenous …, UniProt P73832 1-271))
T1 sequence (looked up): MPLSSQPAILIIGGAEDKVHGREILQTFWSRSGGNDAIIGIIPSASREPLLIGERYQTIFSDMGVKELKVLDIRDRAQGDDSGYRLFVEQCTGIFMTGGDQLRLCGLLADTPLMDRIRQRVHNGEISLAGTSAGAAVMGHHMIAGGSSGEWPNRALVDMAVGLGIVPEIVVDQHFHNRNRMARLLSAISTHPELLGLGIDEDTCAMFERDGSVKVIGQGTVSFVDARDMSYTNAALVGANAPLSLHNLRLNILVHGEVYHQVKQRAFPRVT
Experiment: cell-based or functional assay

in vitro activity of recombinant CphB-His (2 μM; degradation of cyanophycin, β-Asp-Arg dipeptide at 2 min by LC-HRMS) with recombinant ArgD-His added in a 1:1 ratio against without ArgD (BSA control): ~2 fold
B1: FLAG-tagged variant of ArgD (acetylornithine aminotransferase) (enzyme, Synechocystis sp. PCC 6803, UniProt P73133 1-429, looked up)
chain: MTYSPVVESVEAQAFAVTDLSPAAEFKTADFDTYVMNTYGRFPIAIARGQGSTLWDTEGKSYLDFVAGIATCTLGHAHPALVRAVSDQIQKLHHVSNLYYIPEQGELAKWIVEHSCADRVFFCNSGAEANEAAIKLVRKYAHTVLDFLEQPVILTAKASFHGRTLATITATGQPKYQQYFDPLVPGFDYVPYNDIRSLENKVADLDEGNSRVAAIFLEPLQGEGGVRPGDLAYFKRVREICDQNDILLVFDEVQVGVGRTGKLWGYEHLGVEPDIFTSAKGLAGGVPIGAMMCKKFCDVFEPGNHASTFGGNPLACAAGLAVLKTIEGDRLLDNVQARGEQLRSGLAEIKNQYPTLFTEVRGWGLINGLEISAESSLTSVEIVKAAMEQGLLLAPAGPKVLRFVPPLVVTEAEIAQAVEILRQAIATLV

Reference: publication PMC12661447, “Cyanophycinase is required for heterotrophy in cyanobacteria” (The Journal of Biological Chemistry, 2025)
